Values quoted from earlier work in paper doi:10.1101/2022.02.18.481064.

Molecular target: Cys106 (UniProt position 106, LIAAICAGPTA)
Conditions: Reduced Cys106 thiol/thiolate is implied. The state is otherwise not stated.

Substance: DJ-1 (Parkinson disease protein 7, PARK7) (Homo sapiens)
- pKa: 5.4
